Experimental data as given in EP2172481A1.

Target: oocyst extract
Experiment: antigen binding analysis on oocyst extract; method not stated

Kd: 0.55 nM
B1: Di-kappa-body (protein)
chain: QVQLQQSGPELVKPGASVKMSCKASGYTFTVYIIHWLKQKPGQGLEWIGYINPYNDGTKYNEKFRGKATLTSDKSSSTAYMELSSLTSEDSAVYYCARFYYGSSSVFDYWGQGTTLTVSSGGSGGSDVVMTQTQKFMSTSVGDRVSVTCKASQNVGTNVAWYQQKPGQSPKALIYSASYRYSGVPDRFTGSGSGTDFTLTISNVQSEDLAEYFCQQYNSYPLTFGAGTKLELKRTVAAPSVFIFPPSDEQLKSGTASVVCLLNNFYPREAKVQWKVDNALQSGNSQESVTEQDSKDSTYSLSSTLTLSKADYEKHKVYACEVTHQGLSSPVTKSFNRGEC
